Laboratory results as given in PMC5852006, “Microvillar and ciliary defects in zebrafish lacking an actin-binding bioactive peptide amidating enzyme” (Scientific Reports, 2018).

Molecular target: Filamentous actin, pre-formed actin filaments derived from rabbit skeletal muscle (rabbit, UniProt P68135 1-377)
Test: co-sedimentation; F-actin spin-down; constant 0.5 μM F-actin with varying concentrations of PAM-CD; PAM-CD in supernatants and pellets by electrophoretic analysis; Scatchard analysis of three experiments
Details: both partners purified

B1: Peptidylglycine α-amidating monooxygenase cytosolic C-terminal domain, recombinant rat PAM(898–976) (domain or fragment)
chain: FGDHDRKLESSSGRVLGRFRGKGSGGLNLGNFFASRKGYSRKGFDRVSTEGSDQEKDEDDGTESEEEYSAPLPKPAPSS
notes: Peptidylglycine alpha-amidating monooxygenase (PAM), rat, cytosolic C-terminal domain, residues 898-976; no tag is mentioned; also called PAM-CD; rat PAM-CD; source: E. coli BL21(DE3), pET-11CD vector, purified
Work on B1 yielded a Kd of 600 nM.
